Source: patent US20240209076A1 (KODIAK SCIENCES, published 2024)

How the values were obtained:
recombinant human IL-6 [1] = molecular target: T1, recombinant human IL-6 (human, UniProt P05231 30-212); assay: SPR Biacore, supernatant Ab on Protein A chip, IL-6 analyte, 25 C
T1 construct: Bought protein

recombinant human IL-6 [2] = molecular target: T1, recombinant human IL-6; assay: SPR Biacore, purified Ab on Protein A chip, IL-6 analyte, 37 C
Experimental: Antibodies were captured on a Protein A chip (GE) by injecting 1:20 dilution of cell supernatant at 10 μL/min for 60 seconds. […] The sensor chip was regenerated by a 60 seconds injection of 10 mM Glycine pH 1.7 at flow rate of 50 μL/min. […] For this setup, 1 μg/mL of purified antibody was injected over a Protein A chip at 10 μL/min for 25-28 seconds. Data analysis for supernatant and purified samples were performed using BIAevaluation software (GE). All sensorgrams were double reference subtracted and fit using a 1:1 Langmuir binding model.

recombinant human IL-6 [3] = molecular target: T1, recombinant human IL-6; assay: SPR Biacore, purified dual inhibitor on Protein A chip, IL-6 analyte, 37 C
recombinant human IL-6 [4] = molecular target: T1, recombinant human IL-6; assay: SPR Biacore, supernatant dual inhibitor on Protein A chip, IL-6 analyte, 25 C

T1 sequence (P05231 30-212 limits assumed): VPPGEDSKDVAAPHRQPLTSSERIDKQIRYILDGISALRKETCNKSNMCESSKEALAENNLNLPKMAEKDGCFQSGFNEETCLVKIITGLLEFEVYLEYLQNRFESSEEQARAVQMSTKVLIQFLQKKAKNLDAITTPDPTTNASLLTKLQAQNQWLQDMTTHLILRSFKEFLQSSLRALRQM

B1: anti-IL-6 antibody, light chain T96L (heavy chain WT) (antibody, V domains shown)
VH: EVQLVESGGGLVQPGGSLRLSCAASGFTFSPFAMSWVRQAPGKGLEWVAKISPGGSWTYYSDTVTGRFTFSLDTSKSTAYLQMNSLRAEDTAVYYCARQLWGYYALDIWGQGTLVTVSS
VL: DIQLTQSPSSLSASVGDRVTITCSASISVSYMYWYQQKPGKAPKLLIYDMSNLASGVPSRFSGSGSGTDFTLTISSLQPEDFATYYCMQWSGYPYLFGQGTKVEIK
notes: See note of m2; also called WT / T96L
Kd (recombinant human IL-6 [1]): 0.259 nM | koff (recombinant human IL-6 [1]): 0.000135 s⁻¹ | kon (recombinant human IL-6 [1]): 520000 M⁻¹ s⁻¹ | Kd (recombinant human IL-6 [2]): 0.901 nM | koff (recombinant human IL-6 [2]): 0.000795 s⁻¹ | kon (recombinant human IL-6 [2]): 882000 M⁻¹ s⁻¹

B2: anti-IL-6 antibody, light chain T96V (heavy chain WT) (antibody, V domains shown)
VH: EVQLVESGGGLVQPGGSLRLSCAASGFTFSPFAMSWVRQAPGKGLEWVAKISPGGSWTYYSDTVTGRFTFSLDTSKSTAYLQMNSLRAEDTAVYYCARQLWGYYALDIWGQGTLVTVSS
VL: DIQLTQSPSSLSASVGDRVTITCSASISVSYMYWYQQKPGKAPKLLIYDMSNLASGVPSRFSGSGSGTDFTLTISSLQPEDFATYYCMQWSGYPYVFGQGTKVEIK
notes: See note of m2; also called WT / T96V
Kd (recombinant human IL-6 [1]): 0.423 nM | koff (recombinant human IL-6 [1]): 0.000192 s⁻¹ | kon (recombinant human IL-6 [1]): 454000 M⁻¹ s⁻¹ | Kd (recombinant human IL-6 [2]): 0.695 nM | koff (recombinant human IL-6 [2]): 0.000639 s⁻¹ | kon (recombinant human IL-6 [2]): 921000 M⁻¹ s⁻¹

B3: dual inhibitor molecule A (VEGF Trap-AntiIL-6) (other)
heavy: SDTGRPFVEMYSEIPEIIHMTEGRELVIPCRVTSPNITVTLKKFPLDTLIPDGKRIIWDSRKGFIISNATYKEIGLLTCEATVNGHLYKTNYLTHRQTNTIIDVVLSPSHGIELSVGEKLVLNCTARTELNVGIDFNWEYPSSKHQHKKLVNRDLKTQSGSEMKKFLSTLTIDGVTRSDQGLYTCAASSGLMTKKNSTFVRVHEKGGGGSGGGGSEVQLVESGGGLVQPGGSLRLSCAASGFTFSPFAISWVRQAPGKGLEWVAKISPGGSWTYYSDTVTDRFTFSLDTSKSTAYLQMNSLRAEDTAVYYCARQLWGYYALDVWGQGTLVTVSSASTKGPSVFPLAPSSKSTSGGTAALGCLVKDYFPEPVTVSWNSGALTSGVHTFPAVLQSSGLYSLSSVVTVPSSSLGTQTYICNVNHKPSNTKVDKKVEPKSCDKTHTCPPCPAPEAAGAPSVFLFPPKPKDTLMISRTPEVTCVVVDVSHEDPEVKFNWYVDGVEVHNAKTKPREEQYNSTYRVVSVLTVLHQDWLNGKEYKCKVSNKALPAPIEKTISKAKGQPREPQVYTLPPSREEMTKNQVSLTCLVKGFYPSDIAVEWESNGQPENNYKTTPPVLDSDGSFFLYSKLTVDKSRWQQGNVFSCSVMHEALHNHYTQKSLSCSPGK
light: DIQLTQSPSSLSASVGDRVTITCSASISVSYLYWYQQKPGKAPKLLIYDDSSLASGVPSRFSGSGSGTDFTLTISSLQPEDFATYYCQQWSGYPYTFGQGTKVEIKRTVAAPSVFIFPPSDEQLKSGTASVVCLLNNFYPREAKVQWKVDNALQSGNSQESVTEQDSKDSTYSLSSTLTLSKADYEKHKVYACEVTHQGLSSPVTKSFNRGEC
Kd (recombinant human IL-6 [3]): 0.484 nM | koff (recombinant human IL-6 [3]): 0.000538 s⁻¹ | kon (recombinant human IL-6 [3]): 1.11e+06 M⁻¹ s⁻¹ | Kd (recombinant human IL-6 [4]): 0.589 nM | koff (recombinant human IL-6 [4]): 0.000182 s⁻¹ | kon (recombinant human IL-6 [4]): 309000 M⁻¹ s⁻¹

B4: dual inhibitor molecule C (VEGF Trap-AntiIL-6) (other)
heavy: SDTGRPFVEMYSEIPEIIHMTEGRELVIPCRVTSPNITVTLKKFPLDTLIPDGKRIIWDSRKGFIISNATYKEIGLLTCEATVNGHLYKTNYLTHRQTNTIIDVVLSPSHGIELSVGEKLVLNCTARTELNVGIDFNWEYPSSKHQHKKLVNRDLKTQSGSEMKKFLSTLTIDGVTRSDQGLYTCAASSGLMTKKNSTFVRVHEKGGGGSGGGGSEVQLVESGGGLVQPGGSLRLSCAASGFTFSPFAISWVRQAPGKGLEWVAKISPGGSWTYYSDTVTDRFTFSLDTSKSTAYLQMNSLRAEDTAVYYCARQLWGYYALDVWGQGTLVTVSSASTKGPSVFPLAPSSKSTSGGTAALGCLVKDYFPEPVTVSWNSGALTSGVHTFPAVLQSSGLYSLSSVVTVPSSSLGTQTYICNVNHKPSNTKVDKKVEPKSCDKTHTCPPCPAPEAAGAPSVFLFPPKPKDTLMISRTPEVTCVVVDVSHEDPEVKFNWYVDGVEVHNAKTKPREEQYNSTYRVVSVLTVLHQDWLNGKEYKCKVSNKALPAPIEKTISKAKGQPREPQVYTLPPSREEMTKNQVSLTCLVKGFYPSDIAVEWESNGQPENNYKTTPPVLDSDGSFFLYSKLTVDKSRWQQGNVFSCSVMHEALHNHYTQKSLSCSPGK
light: DIQLTQSPSSLSASVGDRVTITCSASISVSYLYWYQQKPGKAPKLLIYDDSNLASGVPSRFSGSGSGTDFTLTISSLQPEDFATYYCQQWSGYPYTFGQGTKVEIKRTVAAPSVFIFPPSDEQLKSGTASVVCLLNNFYPREAKVQWKVDNALQSGNSQESVTEQDSKDSTYSLSSTLTLSKADYEKHKVYACEVTHQGLSSPVTKSFNRGEC
notes: Trap-antibody fusion, VEGF trap at the N-terminus of the anti-IL-6 heavy chain (VH variant I); light chain variant V
Kd (recombinant human IL-6 [3]): 0.477 nM | koff (recombinant human IL-6 [3]): 0.000481 s⁻¹ | kon (recombinant human IL-6 [3]): 1.01e+06 M⁻¹ s⁻¹ | Kd (recombinant human IL-6 [4]): 0.394 nM | koff (recombinant human IL-6 [4]): 0.00015 s⁻¹ | kon (recombinant human IL-6 [4]): 379000 M⁻¹ s⁻¹

B5: dual inhibitor molecule D (VEGF Trap-AntiIL-6) (other)
heavy: SDTGRPFVEMYSEIPEIIHMTEGRELVIPCRVTSPNITVTLKKFPLDTLIPDGKRIIWDSRKGFIISNATYKEIGLLTCEATVNGHLYKTNYLTHRQTNTIIDVVLSPSHGIELSVGEKLVLNCTARTELNVGIDFNWEYPSSKHQHKKLVNRDLKTQSGSEMKKFLSTLTIDGVTRSDQGLYTCAASSGLMTKKNSTFVRVHEKGGGGSGGGGSEVQLVESGGGLVQPGGSLRLSCAASGFTFSPFAWSWVRQAPGKGLEWVAKISPGGSWTYYSDTVTDRFTFSLDTSKSTAYLQMNSLRAEDTAVYYCARQLWGYYALDVWGQGTLVTVSSASTKGPSVFPLAPSSKSTSGGTAALGCLVKDYFPEPVTVSWNSGALTSGVHTFPAVLQSSGLYSLSSVVTVPSSSLGTQTYICNVNHKPSNTKVDKKVEPKSCDKTHTCPPCPAPEAAGAPSVFLFPPKPKDTLMISRTPEVTCVVVDVSHEDPEVKFNWYVDGVEVHNAKTKPREEQYNSTYRVVSVLTVLHQDWLNGKEYKCKVSNKALPAPIEKTISKAKGQPREPQVYTLPPSREEMTKNQVSLTCLVKGFYPSDIAVEWESNGQPENNYKTTPPVLDSDGSFFLYSKLTVDKSRWQQGNVFSCSVMHEALHNHYTQKSLSCSPGK
light: DIQLTQSPSSLSASVGDRVTITCSASISVSYLYWYQQKPGKAPKLLIYDDSSLASGVPSRFSGSGSGTDFTLTISSLQPEDFATYYCQQWSGYPYTFGQGTKVEIKRTVAAPSVFIFPPSDEQLKSGTASVVCLLNNFYPREAKVQWKVDNALQSGNSQESVTEQDSKDSTYSLSSTLTLSKADYEKHKVYACEVTHQGLSSPVTKSFNRGEC
notes: Trap-antibody fusion, VEGF trap at the N-terminus of the anti-IL-6 heavy chain (VH variant II); light chain variant III
Kd (recombinant human IL-6 [3]): 0.365 nM | koff (recombinant human IL-6 [3]): 0.000447 s⁻¹ | kon (recombinant human IL-6 [3]): 1.23e+06 M⁻¹ s⁻¹ | Kd (recombinant human IL-6 [4]): 0.253 nM | koff (recombinant human IL-6 [4]): 0.000109 s⁻¹ | kon (recombinant human IL-6 [4]): 433000 M⁻¹ s⁻¹

B6: dual inhibitor molecule E (VEGF Trap-AntiIL-6) (other)
heavy: SDTGRPFVEMYSEIPEIIHMTEGRELVIPCRVTSPNITVTLKKFPLDTLIPDGKRIIWDSRKGFIISNATYKEIGLLTCEATVNGHLYKTNYLTHRQTNTIIDVVLSPSHGIELSVGEKLVLNCTARTELNVGIDFNWEYPSSKHQHKKLVNRDLKTQSGSEMKKFLSTLTIDGVTRSDQGLYTCAASSGLMTKKNSTFVRVHEKGGGGSGGGGSEVQLVESGGGLVQPGGSLRLSCAASGFTFSPFAWSWVRQAPGKGLEWVAKISPGGSWTYYSDTVTDRFTFSLDTSKSTAYLQMNSLRAEDTAVYYCARQLWGYYALDVWGQGTLVTVSSASTKGPSVFPLAPSSKSTSGGTAALGCLVKDYFPEPVTVSWNSGALTSGVHTFPAVLQSSGLYSLSSVVTVPSSSLGTQTYICNVNHKPSNTKVDKKVEPKSCDKTHTCPPCPAPEAAGAPSVFLFPPKPKDTLMISRTPEVTCVVVDVSHEDPEVKFNWYVDGVEVHNAKTKPREEQYNSTYRVVSVLTVLHQDWLNGKEYKCKVSNKALPAPIEKTISKAKGQPREPQVYTLPPSREEMTKNQVSLTCLVKGFYPSDIAVEWESNGQPENNYKTTPPVLDSDGSFFLYSKLTVDKSRWQQGNVFSCSVMHEALHNHYTQKSLSCSPGK
light: DIQLTQSPSSLSASVGDRVTITCSASISVSYLYWYQQKPGKAPKLLIYDASSLASGVPSRFSGSGSGTDFTLTISSLQPEDFATYYCQQWSGYPYTFGQGTKVEIKRTVAAPSVFIFPPSDEQLKSGTASVVCLLNNFYPREAKVQWKVDNALQSGNSQESVTEQDSKDSTYSLSSTLTLSKADYEKHKVYACEVTHQGLSSPVTKSFNRGEC
notes: Trap-antibody fusion, VEGF trap at the N-terminus of the anti-IL-6 heavy chain (VH variant II); light chain variant IV
Kd (recombinant human IL-6 [3]): 0.424 nM | koff (recombinant human IL-6 [3]): 0.000459 s⁻¹ | kon (recombinant human IL-6 [3]): 1.08e+06 M⁻¹ s⁻¹ | Kd (recombinant human IL-6 [4]): 0.299 nM | koff (recombinant human IL-6 [4]): 0.000151 s⁻¹ | kon (recombinant human IL-6 [4]): 504000 M⁻¹ s⁻¹

B7: dual inhibitor molecule B (VEGF Trap-AntiIL-6) (other)
heavy: SDTGRPFVEMYSEIPEIIHMTEGRELVIPCRVTSPNITVTLKKFPLDTLIPDGKRIIWDSRKGFIISNATYKEIGLLTCEATVNGHLYKTNYLTHRQTNTIIDVVLSPSHGIELSVGEKLVLNCTARTELNVGIDFNWEYPSSKHQHKKLVNRDLKTQSGSEMKKFLSTLTIDGVTRSDQGLYTCAASSGLMTKKNSTFVRVHEKGGGGSGGGGSEVQLVESGGGLVQPGGSLRLSCAASGFTFSPFAISWVRQAPGKGLEWVAKISPGGSWTYYSDTVTDRFTFSLDTSKSTAYLQMNSLRAEDTAVYYCARQLWGYYALDVWGQGTLVTVSSASTKGPSVFPLAPSSKSTSGGTAALGCLVKDYFPEPVTVSWNSGALTSGVHTFPAVLQSSGLYSLSSVVTVPSSSLGTQTYICNVNHKPSNTKVDKKVEPKSCDKTHTCPPCPAPEAAGAPSVFLFPPKPKDTLMISRTPEVTCVVVDVSHEDPEVKFNWYVDGVEVHNAKTKPREEQYNSTYRVVSVLTVLHQDWLNGKEYKCKVSNKALPAPIEKTISKAKGQPREPQVYTLPPSREEMTKNQVSLTCLVKGFYPSDIAVEWESNGQPENNYKTTPPVLDSDGSFFLYSKLTVDKSRWQQGNVFSCSVMHEALHNHYTQKSLSCSPGK
light: DIQLTQSPSSLSASVGDRVTITCSASISVSYLYWYQQKPGKAPKLLIYDASSLASGVPSRFSGSGSGTDFTLTISSLQPEDFATYYCQQWSGYPYTFGQGTKVEIKRTVAAPSVFIFPPSDEQLKSGTASVVCLLNNFYPREAKVQWKVDNALQSGNSQESVTEQDSKDSTYSLSSTLTLSKADYEKHKVYACEVTHQGLSSPVTKSFNRGEC
notes: Trap-antibody fusion, VEGF trap at the N-terminus of the anti-IL-6 heavy chain (VH variant I); light chain variant IV
Kd (recombinant human IL-6 [3]): 0.507 nM | koff (recombinant human IL-6 [3]): 0.000536 s⁻¹ | kon (recombinant human IL-6 [3]): 1.06e+06 M⁻¹ s⁻¹ | Kd (recombinant human IL-6 [4]): 0.305 nM | koff (recombinant human IL-6 [4]): 0.000185 s⁻¹ | kon (recombinant human IL-6 [4]): 605000 M⁻¹ s⁻¹
